From paper PMC2756588

T1: Sla1-2, P32790
T1 sequence (P32790 60-140, looked up): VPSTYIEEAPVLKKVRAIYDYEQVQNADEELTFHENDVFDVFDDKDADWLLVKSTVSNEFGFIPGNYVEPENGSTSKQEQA

T2: Bud14, P27637
T2 sequence (P27637 247-328, looked up): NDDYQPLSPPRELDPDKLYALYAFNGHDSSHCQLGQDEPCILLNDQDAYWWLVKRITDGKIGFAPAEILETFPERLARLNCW

T3: Hof1, Q05080
T3 sequence (Q05080 590-669, looked up): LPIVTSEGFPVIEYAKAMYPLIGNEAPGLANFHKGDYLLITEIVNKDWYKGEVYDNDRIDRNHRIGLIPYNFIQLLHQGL

T4: Lsb4, P32793
T4 sequence (P32793 402-468, looked up): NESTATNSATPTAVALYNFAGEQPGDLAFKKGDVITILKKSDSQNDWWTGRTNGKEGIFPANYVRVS

T5: Cyk3, Q07533
T5 sequence (Q07533 1-83, looked up): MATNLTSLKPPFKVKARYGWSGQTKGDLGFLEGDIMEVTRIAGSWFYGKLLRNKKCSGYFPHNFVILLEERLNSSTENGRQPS

T6: Cdc25, P04821
T6 sequence (P04821 50-136, looked up): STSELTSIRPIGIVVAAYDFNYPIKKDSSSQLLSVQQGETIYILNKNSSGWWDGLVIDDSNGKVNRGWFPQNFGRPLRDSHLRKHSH

T7: Myo5, Q04439
T7 sequence (Q04439 1072-1160, looked up): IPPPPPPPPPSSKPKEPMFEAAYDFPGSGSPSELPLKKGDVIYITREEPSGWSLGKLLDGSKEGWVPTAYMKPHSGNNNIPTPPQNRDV

T8: Boi2, P39969
T8 sequence (P39969 32-116, looked up): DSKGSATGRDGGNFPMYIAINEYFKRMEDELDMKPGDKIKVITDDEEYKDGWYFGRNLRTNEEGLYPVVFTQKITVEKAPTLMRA

T9: Fus1, P11710
T9 sequence (P11710 432-512, looked up): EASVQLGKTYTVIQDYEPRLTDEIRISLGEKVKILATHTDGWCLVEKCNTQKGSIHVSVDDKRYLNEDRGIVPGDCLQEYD

T10: Abp1, P15891
T10 sequence (P15891 535-592, looked up): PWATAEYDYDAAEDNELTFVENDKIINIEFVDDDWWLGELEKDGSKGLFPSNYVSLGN

T11: Nbp2, Q12163
T11 sequence (Q12163 103-180, looked up): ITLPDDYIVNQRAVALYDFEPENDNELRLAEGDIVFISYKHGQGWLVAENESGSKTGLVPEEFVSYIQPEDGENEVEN

T12: Bzz1-1, P38822
T12 sequence (P38822 478-572, looked up): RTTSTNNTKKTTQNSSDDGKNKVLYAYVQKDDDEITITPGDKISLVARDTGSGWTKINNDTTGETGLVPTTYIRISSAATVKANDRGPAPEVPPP

T13: Pex13, P80667
T13 sequence (P80667 295-386, looked up): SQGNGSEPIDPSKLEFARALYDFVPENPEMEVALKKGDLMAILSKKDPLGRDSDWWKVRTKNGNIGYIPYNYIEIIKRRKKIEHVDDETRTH

T14: Hse1, P38753
T14 sequence (P38753 208-285, looked up): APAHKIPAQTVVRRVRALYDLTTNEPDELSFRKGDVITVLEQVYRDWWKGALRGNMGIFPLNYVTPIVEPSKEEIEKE

T15: Sla1-3, P32790
T15 sequence (P32790 344-424, looked up): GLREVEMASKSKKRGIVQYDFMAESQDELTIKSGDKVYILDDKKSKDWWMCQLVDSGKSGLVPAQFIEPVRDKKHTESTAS

T16: Bbc1, P47068
T16 sequence (P47068 1-78, looked up): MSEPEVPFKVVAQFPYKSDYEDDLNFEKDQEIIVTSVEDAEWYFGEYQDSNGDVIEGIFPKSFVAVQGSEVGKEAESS

T17: Boi1, P38041
T17 sequence (P38041 1-86, looked up): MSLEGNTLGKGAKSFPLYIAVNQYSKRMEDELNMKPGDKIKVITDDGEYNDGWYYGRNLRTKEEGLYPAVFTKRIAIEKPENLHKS

T18: Lsb3, P43603
T18 sequence (P43603 385-451, looked up): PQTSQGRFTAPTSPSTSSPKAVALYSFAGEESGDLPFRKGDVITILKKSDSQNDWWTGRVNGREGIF

T19: Pin3, Q06449
T19 sequence (Q06449 53-122, looked up): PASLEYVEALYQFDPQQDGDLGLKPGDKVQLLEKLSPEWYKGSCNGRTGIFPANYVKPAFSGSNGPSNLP

T20: Bzz1-2, P38822
T20 sequence (P38822 568-633, looked up): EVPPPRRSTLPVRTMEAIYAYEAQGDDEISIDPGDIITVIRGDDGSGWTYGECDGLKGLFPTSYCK

T21: Lsb1, P53281
T21 sequence (P53281 45-122, looked up): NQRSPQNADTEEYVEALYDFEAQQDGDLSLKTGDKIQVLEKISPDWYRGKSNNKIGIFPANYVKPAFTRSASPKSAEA


What was measured:
Assay in all cases: SPOT array
Bem1-2, P29366 = conditions: median of control spots 4347
Sequence of Bem1-2, P29366 (P29366 139-227): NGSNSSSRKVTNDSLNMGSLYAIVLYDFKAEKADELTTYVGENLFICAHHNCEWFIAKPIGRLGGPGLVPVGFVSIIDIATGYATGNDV

Sla1-2, P32790 = biological target: T1, Sla1-2, P32790; conditions: median of control spots 712
GST = conditions: median of control spots 978
Bud14, P27637 = biological target: T2, Bud14, P27637; conditions: median of control spots 956
Hof1, Q05080 = biological target: T3, Hof1, Q05080; conditions: median of control spots 4086
Lsb4, P32793 = biological target: T4, Lsb4, P32793; conditions: median of control spots 397
Bem1-1, P29366 = conditions: median of control spots 4282
Sequence of Bem1-1, P29366 (P29366 55-141): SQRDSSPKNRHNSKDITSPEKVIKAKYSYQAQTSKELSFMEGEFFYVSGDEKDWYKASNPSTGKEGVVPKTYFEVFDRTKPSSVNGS

Cyk3, Q07533 = biological target: T5, Cyk3, Q07533; conditions: median of control spots 1451
Myo3, P36006 = conditions: median of control spots 468
Cdc25, P04821 = biological target: T6, Cdc25, P04821; conditions: median of control spots 969
Rvs167, P39743 = conditions: median of control spots 2707
Sequence of Rvs167, P39743 (P39743 419-482): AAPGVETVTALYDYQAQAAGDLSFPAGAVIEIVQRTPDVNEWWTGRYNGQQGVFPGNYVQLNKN

Myo5, Q04439 = biological target: T7, Myo5, Q04439; conditions: median of control spots 471
Boi2, P39969 = biological target: T8, Boi2, P39969; conditions: median of control spots 1161
Fus1, P11710 = biological target: T9, Fus1, P11710; conditions: median of control spots 1200
Abp1, P15891 = biological target: T10, Abp1, P15891; conditions: median of control spots 935
Nbp2, Q12163 = biological target: T11, Nbp2, Q12163; conditions: median of control spots 357
Bzz1-1, P38822 = biological target: T12, Bzz1-1, P38822; conditions: median of control spots 4446
Pex13, P80667 = biological target: T13, Pex13, P80667; conditions: median of control spots 1341
Hse1, P38753 = biological target: T14, Hse1, P38753; conditions: median of control spots 1727
Sla1-3, P32790 = biological target: T15, Sla1-3, P32790; conditions: median of control spots 5475
Sho1, P40073 = conditions: median of control spots 1148
Sequence of Sho1, P40073 (P40073 287-367): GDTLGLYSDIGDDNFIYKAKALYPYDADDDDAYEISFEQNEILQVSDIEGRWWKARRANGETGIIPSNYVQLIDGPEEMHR

Bbc1, P47068 = biological target: T16, Bbc1, P47068; conditions: median of control spots 796
Boi1, P38041 = biological target: T17, Boi1, P38041; conditions: median of control spots 1162
Lsb3, P43603 = biological target: T18, Lsb3, P43603; conditions: median of control spots 406
Pin3, Q06449 = biological target: T19, Pin3, Q06449; conditions: median of control spots 2171
Bzz1-2, P38822 = biological target: T20, Bzz1-2, P38822; conditions: median of control spots 4538
Lsb1, P53281 = biological target: T21, Lsb1, P53281; conditions: median of control spots 388

Binder	SPOT intensity (Bem1-2, P29366)	SPOT intensity (Sla1-2, P32790)	SPOT intensity (GST)	SPOT intensity (Bud14, P27637)	SPOT intensity (Hof1, Q05080)	SPOT intensity (Lsb4, P32793)	SPOT intensity (Bem1-1, P29366)	SPOT intensity (Cyk3, Q07533)	SPOT intensity (Myo3, P36006)	SPOT intensity (Cdc25, P04821)	SPOT intensity (Rvs167, P39743)	SPOT intensity (Myo5, Q04439)	SPOT intensity (Boi2, P39969)	SPOT intensity (Fus1, P11710)	SPOT intensity (Abp1, P15891)	SPOT intensity (Nbp2, Q12163)	SPOT intensity (Bzz1-1, P38822)	SPOT intensity (Pex13, P80667)	SPOT intensity (Hse1, P38753)	SPOT intensity (Sla1-3, P32790)	other results
NFFRKKLGIPRKLKR	13	0	0	43	29	1	1	4	3	138	3	0	2	219	99	72	0	14	130	58	SPOT intensity (Sho1, P40073): 107; SPOT intensity (Bbc1, P47068): 101; SPOT intensity (Boi1, P38041): 14; SPOT intensity (Lsb3, P43603): 1; SPOT intensity (Pin3, Q06449): 7; SPOT intensity (Bzz1-2, P38822): 7; SPOT intensity (Lsb1, P53281): 234
WRPRIVPILPYITRL	94	0	0	2	770	6	0	0	0	14	36	0	0	8	10	1	0	10	11	9	SPOT intensity (Sho1, P40073): 3; SPOT intensity (Bbc1, P47068): 87; SPOT intensity (Boi1, P38041): 0; SPOT intensity (Lsb3, P43603): 0; SPOT intensity (Pin3, Q06449): 8; SPOT intensity (Bzz1-2, P38822): 0; SPOT intensity (Lsb1, P53281): 22
RRLRDKYKLPIVDAD	2	0	0	26	9	0	0	1	0	18	1	0	0	58	18	7	0	0	9	34	SPOT intensity (Sho1, P40073): 19; SPOT intensity (Bbc1, P47068): 14; SPOT intensity (Boi1, P38041): 6; SPOT intensity (Lsb3, P43603): 0; SPOT intensity (Pin3, Q06449): 0; SPOT intensity (Bzz1-2, P38822): 2; SPOT intensity (Lsb1, P53281): 48
TKRKRPARLIFYDSK	6	2	1	29	4	7	0	7	7	61	0	3	9	29	157	183	0	1	11	33	SPOT intensity (Sho1, P40073): 91; SPOT intensity (Bbc1, P47068): 308; SPOT intensity (Boi1, P38041): 39; SPOT intensity (Lsb3, P43603): 6; SPOT intensity (Pin3, Q06449): 0; SPOT intensity (Bzz1-2, P38822): 5; SPOT intensity (Lsb1, P53281): 4
